Experimental data taken from US20090011988A1 (Genentech, published 2009).

T1: human IGFBP-1 (human, UniProt P08833 26-259)
T1 sequence (looked up): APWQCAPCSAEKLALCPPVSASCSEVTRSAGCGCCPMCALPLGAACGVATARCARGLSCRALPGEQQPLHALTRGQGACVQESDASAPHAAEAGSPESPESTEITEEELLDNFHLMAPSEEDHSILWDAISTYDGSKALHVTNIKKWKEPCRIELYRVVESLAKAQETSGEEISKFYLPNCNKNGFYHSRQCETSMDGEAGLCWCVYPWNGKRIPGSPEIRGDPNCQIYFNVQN


Columns and labels:
[1] = molecular target: T1, human IGFBP-1; assay: competitive phage ELISA
Description: (§1) E. coli cells (XL1-Blue, Stratagene) freshly transformed with phagemid vector were grown overnight in 5 mL 2YT medium (Sambrook et al., supra) in the presence of M13-VCS helper phage (Stratagene). Phage particles were harvested and resuspended in PBS buffer as described in Lowman, H. B., “Phage Display of Peptide Libraries on Protein Scaffolds,” in Cabilly, S. (ed.), Combinatorial Peptide Library Protocols (Humana Press Inc.: Totowa, N.J., 1998), pp. 249-264. Then phage concentrations were normalized to yield a maximal ELISA signal of 0.2-0.4 for each mutant (Lowman, in Cabilly, S. (ed.), supra). Threefold serial dilutions of soluble competitor were prepared on non-absorbent microtiter plates (Nunc, F, 96 wells) with binding buffer (0.5% TWEEN 20%/PBS) containing phage at the previously determined concentrations. […] After blocking, the plates containing immobilized target were washed with 0.05% TWEEN™/PBS buffer and subsequently incubated with 80 μl/well of the premixed phage-competitor solutions for 1 hour at room temperature. […] IC₅₀ values were determined by fitting the binding data to a generic saturation curve (Lowman, in Cabilly, S. (ed.), supra). At least two individual clones of each IGF-1 mutant were assayed. Numbers in Table XIII represent mean±standard deviation of individually assessed IC₅₀ values.

[2] = molecular target: recombinant human IGFBP-3 (human, UniProt P17936 28-291); assay: competitive phage ELISA
Description: as §1

Chain of recombinant human IGFBP-3 (P17936 28-291 limits assumed): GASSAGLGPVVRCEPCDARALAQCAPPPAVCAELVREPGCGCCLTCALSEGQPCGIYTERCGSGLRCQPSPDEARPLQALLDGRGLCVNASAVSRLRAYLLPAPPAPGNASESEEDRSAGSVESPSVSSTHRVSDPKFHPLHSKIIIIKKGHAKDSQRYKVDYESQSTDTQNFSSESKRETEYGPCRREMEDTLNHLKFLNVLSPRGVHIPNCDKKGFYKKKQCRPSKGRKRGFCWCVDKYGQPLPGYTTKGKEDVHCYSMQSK

Molecule	IC50 [1]	relative IC50 (mut/G1S-A70V) [1]	IC50 [2]	relative IC50 (mut/G1S-A70V) [2]
IGF-1 L10A displayed on phage (from UniProt P69168 267-424) (ligand)	311 nM	37.9	3.55 nM	4.7
IGF-1 D20A displayed on phage (from UniProt P69168 267-424) (ligand)	–	–	1.11 nM	1.5
IGF-1 F23A displayed on phage (from UniProt P69168 267-424) (ligand)	–	–	2.18 nM	2.9
IGF-1 L14A displayed on phage (from UniProt P69168 267-424) (ligand)	36.7 nM	4.5	–	–
IGF-1 G22A displayed on phage (from UniProt P69168 267-424) (ligand)	–	–	2.07 nM	2.8
IGF-1 F25A displayed on phage (from UniProt P69168 267-424) (ligand)	181 nM	22.1	3.69 nM	4.9
IGF-1 P28A displayed on phage (from UniProt P69168 267-424) (ligand)	–	–	1.41 nM	1.9
IGF-1 Q15A displayed on phage (from UniProt P69168 267-424) (ligand)	–	–	–	1.7
IGF-1 D12A displayed on phage (from UniProt P69168 267-424) (ligand)	4.3 nM	0.5	–	–
IGF-1 Y24A displayed on phage (from UniProt P69168 267-424) (ligand)	–	–	2.53 nM	3.4
IGF-1 V17A displayed on phage (from UniProt P69168 267-424) (ligand)	42.9 nM	5.2	3.67 nM	4.9
IGF-1 D45A displayed on phage (ligand, not shown: large carriers; small tags and cut ends, G1S-A70V background) SPETLCGAELVDALQFVCGDRGFYFNKPTGYGSSSRRAPQTGIVAECCFRSCDLRRLEMYCAPLKPAKSV	4.7 nM	–	0.69 nM	–
IGF-1 D53A displayed on phage (ligand, not shown: large carriers; small tags and cut ends, ends and bridges not checked; also: displayed on M13 phage, fused to g3p fragment (249-406) via amber-codon residue, G1S-A70V background) SPETLCGAELVDALQFVCGDRGFYFNKPTGYGSSSRRAPQTGIVDECCFRSCALRRLEMYCAPLKPAKSV	15.3 nM	–	1.05 nM	–
IGF-1 G42A displayed on phage (ligand, not shown: large carriers; small tags and cut ends, G1S-A70V background) SPETLCGAELVDALQFVCGDRGFYFNKPTGYGSSSRRAPQTAIVDECCFRSCDLRRLEMYCAPLKPAKSV	15.7 nM	–	0.53 nM	–
IGF-1 E58A displayed on phage (ligand, not shown: large carriers; small tags and cut ends, ends and bridges not checked; also: displayed on M13 phage, fused to g3p fragment (249-406) via amber-codon residue, G1S-A70V background) SPETLCGAELVDALQFVCGDRGFYFNKPTGYGSSSRRAPQTGIVDECCFRSCDLRRLAMYCAPLKPAKSV	11.9 nM	–	1.03 nM	–
IGF-1 F49A displayed on phage (ligand, not shown: large carriers; small tags and cut ends, G1S-A70V background; also called IGF-F49A phage) SPETLCGAELVDALQFVCGDRGFYFNKPTGYGSSSRRAPQTGIVDECCARSCDLRRLEMYCAPLKPAKSV	–	> 100	2.72 nM	–
IGF-1 E46A displayed on phage (ligand, not shown: large carriers; small tags and cut ends, G1S-A70V background) SPETLCGAELVDALQFVCGDRGFYFNKPTGYGSSSRRAPQTGIVDACCFRSCDLRRLEMYCAPLKPAKSV	7.9 nM	–	0.94 nM	–
IGF-1 I43A displayed on phage (ligand, not shown: large carriers; small tags and cut ends, G1S-A70V background) SPETLCGAELVDALQFVCGDRGFYFNKPTGYGSSSRRAPQTGAVDECCFRSCDLRRLEMYCAPLKPAKSV	31.3 nM	–	1.17 nM	–
